This data set can be described thus: Z-ISO in vitro enzyme assay with substrate-containing liposomes. It is filed as biochemical, Zea mays. The method, then: Z-ISO in vitro enzyme assay. Preparation of substrate-containing liposomes. To produce the substrate, 9,15,9′-tri-cis-ζ-carotene (tri) from E. coli BL21(DE3) cultures, 400 ml of Luria-Bertani medium (I % tryptone, 0.5% yeast extract and 1% NaCl) containing chloramphenicol (34 μg per ml (Sigma-Aldrich)) was inoculated with 8 ml of overnight culture containing pACCRT-EBP (no. 150). Cultures were grown in the dark at 37° C., with shaking at 160 r.p.m. for 8 h before induction with 10 mM IPTG. Cultures were further incubated at 28° C., with shaking at 100 r.p.m. for 40 h and for an additional 2 d without shaking. Cells were centrifuged at 2,600 g, and pellets were resuspended in a total of 40 ml of methanol, distributed in four conical tubes with equal volumes of extract and then sonicated twice on ice (30 s each, at 60% power) with a Vibra Cell VC600 sonicator equipped with a tapered 3-mm microtip (Sonics & Materials). Extracts were centrifuged at 2,600 g for 10 min, and supernatants were transferred to 15-ml conical tubes and evaporated under nitrogen gas in the dark. Dried samples were resolubilized in 300 μl of methanol, transferred to 1.5-ml microfuge tubes, frozen at −80° C. for 1 h and centrifuged at 16,000 g at 4° C. Extractions were then combined, and 1 ml was used to prepare liposomes. Cells also accumulate […] (di), and therefore enzymatic conversion is measured as the ratio of di to tri isomers. For preparation of liposomes, 1 ml of substrate extract (58 μM, estimated by spectroscopy, with the molar extinction coefficient for ζ-carotene, ε400, equal to 138,000) was mixed with 35 μl of soybean L-α-phosphatidylcholine (Sigma-Aldrich, 99% pure) (20 mg per ml in methanol). The mixture was dried under N2, and this was followed by addition of 800 μl sonication buffer (25 mM HEPES, pH 7.8, 100 mM NaCl and 10% glycerol) and sonication on ice with a Vibra Cell VC600 sonicator equipped with a 3-mm tapered microtip (Sonics & Materials) for 1 min, at intervals of 10 s at 20% power.
In vitro reactions. […]

The source of these data is patent publication US20180312877A1, “METHOD FOR ISOMERIZING DOUBLE BONDS” (Research Foundation of the City University of New York, priority 2015, published 2018).

B1: Z-ISO: 15-cis-ζ-carotene isomerase from Zea mays (SEQ ID NO: 12), heme b enzyme, purified as TEV-cleavable MBP fusion (protein)
chain: MASQLRLHLAATPPLLPHRRPHLPRPLCPTLNPIRAPLPPLSRVLSHARPARAVGGGIEPKEGVVAEGDESGGGPVLVGEDSAAFELKDQSVASWAYFAGILGAVLVALNVLWIDPSTGVGTKFLDAVASVSDSHEVVMLLLTIIFAVVHSGMASLRESGEKIVGERVYRVLFAGISLPLAVTTIVYFINHRYDGTQLWQVQGITGIHELLWFSSFISFFFLYPSTFNLLEVAAVDKPKLHMWETGIMRITRHPQMVGQVIWCLAHTLWIGNSVAVAASVGLISHHLFGAWNGDRRLLSRYGEAFEVLKKRTSVMPFAAIIDGRQKLPKDYHKEFFRLPYVAITMLTLGAYFAHPLMQASSYQLPW
modifications: MBP fusion, TEV-cleavable; Zea mays
For the molecule B1, the “conversion of substrate to product” value is on record as “Conversion of the substrate to product occurred” (Z-ISO pretreated with dithionite, 10 mM final (reducing conditions)); “not functional” (as-purified enzyme (considered to be oxidized)); “not functional” (heat-denatured Z-ISO).
